From patent publication US20220348667A1 (LUXEMBOURG INSTITUTE OF HEALTH LIH, published 2022) come the findings set out here.

Test [1] has as its target murine ACKR2 stably overexpressed on HEK293T cells (HEK.mACKR2) (mouse) (UniProt O08707). As to the kind of experiment: flow cytometry binding competition on HEK.mACKR2 cells, CCL5-AF647 (30 nM) as competitor. (In general: Flow cytometry measures light scatter and fluorescence of single cells or particles in a stream.)
The target of test [2] is T1, human ACKR2 stably expressed on HEK293T cells (HEK.ACKR2) (human, UniProt O00590 1-384).
T1 construct: whole, on cells; also called hACKR2; HEK.hACKR2
T1 sequence (looked up): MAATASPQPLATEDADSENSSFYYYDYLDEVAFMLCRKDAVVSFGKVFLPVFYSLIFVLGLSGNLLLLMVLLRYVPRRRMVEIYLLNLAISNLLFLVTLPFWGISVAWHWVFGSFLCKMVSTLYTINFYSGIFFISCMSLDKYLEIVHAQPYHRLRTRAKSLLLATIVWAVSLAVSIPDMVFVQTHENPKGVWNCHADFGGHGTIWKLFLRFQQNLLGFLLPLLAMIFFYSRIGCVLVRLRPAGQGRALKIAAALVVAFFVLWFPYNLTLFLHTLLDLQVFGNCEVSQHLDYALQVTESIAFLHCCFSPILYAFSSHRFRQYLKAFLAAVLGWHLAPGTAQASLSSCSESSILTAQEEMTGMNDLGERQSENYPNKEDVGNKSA
Kind of test: flow cytometry, displacement of CXCL10-Cy5 from HEK.ACKR2 cells by unlabelled chemokine (50 nM). How it is done: HEK293T and HEK-ACKR2 cells were incubated with CXCL10-Cy5 at indicated concentrations for 45 minutes at 37° C., then washed twice with FACS buffer (PBS, 1% BSA, 0.1% NaN₃). Dead cells were excluded using Zombie Green viability dye (BioLegend). ACKR2-negative HEK293T cells were used to evaluate non-specific binding of CXCL10-Cy5. For binding competition with unlabelled chemokines (50 nM), the signal obtained for CXCL10-Cy5 in the absence of unlabelled chemokines was used to define 100% binding. Ligand binding was quantified by mean fluorescence intensity on a BD FACS Fortessa cytometer (BD Biosciences).

Sequence of murine ACKR2 stably overexpressed on HEK293T cells (HEK.mACKR2) (mouse) (O08707 whole entry): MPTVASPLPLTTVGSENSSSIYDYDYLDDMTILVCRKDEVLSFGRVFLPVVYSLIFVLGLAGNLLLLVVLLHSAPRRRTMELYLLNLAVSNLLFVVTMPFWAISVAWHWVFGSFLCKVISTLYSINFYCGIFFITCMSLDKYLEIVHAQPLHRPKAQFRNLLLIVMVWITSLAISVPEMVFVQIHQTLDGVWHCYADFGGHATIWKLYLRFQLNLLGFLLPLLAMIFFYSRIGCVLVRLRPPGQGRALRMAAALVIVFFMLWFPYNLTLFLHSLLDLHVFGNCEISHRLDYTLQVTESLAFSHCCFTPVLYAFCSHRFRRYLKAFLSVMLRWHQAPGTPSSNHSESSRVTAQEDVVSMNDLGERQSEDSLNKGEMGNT

Regarding “polyclonal Goat anti-mACKR2 (ab1656, Abcam) (antibody)”, in test [1], the % displacement of CCL5-AF647 at 50 µg/ml antibody was more than 80%.

B1: CCL5 (unlabelled, PeproTech) (ligand, human, UniProt P13501 24-91, looked up)
chain: SPYSSDTTPCCFAYIARPLPRAHIKEYFYTSGKCSNPAVVFVTRKNRQVCANPEKKWVREYINSLEMS
In the case of B1, the binding result in test [2] was “binds”.
